Reference: patent US5674835, “Papillomaviral expression inhibitors” (New England Medical Center Hospitals, Inc.)

T1: BPV-1 E2 C-terminal segment (cII-E2 fusion, pCOE2-1) (Bovine papillomavirus type 1, UniProt P03122 P03122:114-410)
T1 chain: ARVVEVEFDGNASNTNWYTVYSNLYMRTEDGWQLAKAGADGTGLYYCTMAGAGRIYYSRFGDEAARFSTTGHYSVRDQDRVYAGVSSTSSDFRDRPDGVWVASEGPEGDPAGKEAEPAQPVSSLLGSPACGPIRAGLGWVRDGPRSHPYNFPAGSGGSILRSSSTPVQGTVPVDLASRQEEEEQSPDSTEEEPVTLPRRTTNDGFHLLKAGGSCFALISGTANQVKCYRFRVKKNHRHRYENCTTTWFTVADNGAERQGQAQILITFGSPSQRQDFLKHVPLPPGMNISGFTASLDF


Tests used:
Conditions in all cases: tags: 13 N-terminal amino acids of lambda cII; partially purified from E. coli N6405; chain copies: 2
[1] = target: T1, BPV-1 E2 C-terminal segment (cII-E2 …); experiment: competition; about 1000 times more effective competitor than N2; DNA immunoprecipitation
[2] = target: T1, BPV-1 E2 C-terminal segment (cII-E2 …); experiment: competition; relative to N1; no consensus site
[3] = target: T1, BPV-1 E2 C-terminal segment (cII-E2 …); experiment: competition; single strand did not block immunoprecipitation of dsDNA

| Binder | binding result [3] | also measured |
| --- | --- | --- |
| 23 bp URR fragment with E2 site IIIb (dsDNA) DNA 1: CGTCAAACCGTCTTCGGTGCTC DNA 2: GAGCACCGAAGACGGTTTGACG | – | binding signal [1]: ~1000 fold |
| 23 bp fragment without E2 site (dsDNA) DNA 1: GCGCATAATCAGCTTAATTGGTG DNA 2: CACCAATTAAGCTGATTATGCGC | – | binding signal [2]: ~0.001 fold |
| CGTCAAACCGTCTTCGGTGCTC (ssDNA) [single-stranded oligonucleotide with site IIIb] | no binding | – |
| GCGCATAATCAGCTTAATTGGTG (ssDNA) [single-stranded oligonucleotide without E2 site] | no binding | – |
